From patent US20180057595A1 (CELLDEX THERAPEUTICS, published 2018) come the findings set out here.

Assay [1] addresses human MET, cell-surface expressed (human, UniProt P08581 25-1390). Nature of the assay: cell-based or functional assay.
The target of assay [2] is T1, hMET Q328H/R331K/S336N (human, UniProt P08581 25-1390).
T1 construct: whole, on cells; also called human to canine
Nature of the assay: flow cytometry on transfected CHO cells (ND = not detectable). As for the experimental part:
(§1) This surface-exposed cluster in the human MET (hMET) protein was replaced with corresponding amino acids from canine or murine MET. hMET mutants were then transfected into CHO cells and antibody binding affinity was measured by flow cytometry.
A general note: In flow cytometry, cells or beads pass a laser one at a time.

Assay [3] addresses T2, hMET R331K/L337P (human, UniProt P08581 25-1390).
T2 construct: whole, on cells; also called human to murine
Described as above. As to the method:
as §1

The target in assay [4] is T3, hMET R331K/S336N (human, UniProt P08581 25-1390).
T3 construct: whole, on cells; also called human to canine
The description is as above. As for the experimental part:
as §1

The target in assay [5] is T4, hMET Q328N/R331K/L337P/N338S (human, UniProt P08581 25-1390).
T4 construct: whole, on cells; also called human to murine
The assay is described as above. As to the method: as §1

The target of assay [6] is T5, murine MET-ECD (murine, UniProt P16056 25-931).
T5 construct: extracellular domain; also called mouse cMET ECD
T5 sequence (P16056 25-931): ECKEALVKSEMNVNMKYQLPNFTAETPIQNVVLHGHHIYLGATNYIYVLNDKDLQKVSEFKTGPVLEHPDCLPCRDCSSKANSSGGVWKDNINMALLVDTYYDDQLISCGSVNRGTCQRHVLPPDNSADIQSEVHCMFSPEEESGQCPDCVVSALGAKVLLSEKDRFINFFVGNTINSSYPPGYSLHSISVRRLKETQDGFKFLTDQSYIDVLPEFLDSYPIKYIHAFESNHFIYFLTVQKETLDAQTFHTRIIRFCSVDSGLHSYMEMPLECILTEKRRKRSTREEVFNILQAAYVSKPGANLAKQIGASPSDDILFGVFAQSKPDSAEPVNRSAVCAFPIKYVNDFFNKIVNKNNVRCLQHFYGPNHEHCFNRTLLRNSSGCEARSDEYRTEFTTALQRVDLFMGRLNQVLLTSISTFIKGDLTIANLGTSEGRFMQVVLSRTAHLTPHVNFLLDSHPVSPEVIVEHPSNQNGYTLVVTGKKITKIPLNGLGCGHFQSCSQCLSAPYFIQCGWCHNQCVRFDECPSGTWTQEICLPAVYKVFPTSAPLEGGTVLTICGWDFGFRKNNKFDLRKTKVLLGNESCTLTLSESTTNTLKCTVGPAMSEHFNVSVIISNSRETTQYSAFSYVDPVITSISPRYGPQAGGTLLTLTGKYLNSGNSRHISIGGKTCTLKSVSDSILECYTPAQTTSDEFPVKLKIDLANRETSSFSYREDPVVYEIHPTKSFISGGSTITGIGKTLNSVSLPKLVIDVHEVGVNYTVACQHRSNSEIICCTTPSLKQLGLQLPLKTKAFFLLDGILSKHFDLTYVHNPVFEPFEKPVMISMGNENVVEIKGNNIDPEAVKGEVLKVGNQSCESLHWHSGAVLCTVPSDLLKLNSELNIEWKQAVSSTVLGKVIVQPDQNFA
Nature of the assay: ELISA on coated murine MET-ECD. As for the experimental part: To measure antibody binding by ELISA, 10 μg of human, murine or chimeric MET-ECD was coated onto 96-well plates (Costar). Serial dilutions of antibodies were added to the plates and incubated at room temperature for 1 hr prior to the addition of HRP-conjugated secondary antibody. Luminescence was measured with BioTek SYNERGY™ HT plate reader, and binding EC₅₀ values were determined using […] PRISM® software.
(An ELISA detects its analyte on a solid surface through an enzyme-linked reagent.)

For assay [7], the target named is T6, mouse MET on MS1 cells (mouse, UniProt P16056 25-1379).
T6 construct: whole, on cells; also called Murine (MS1)
T6 sequence (P16056 25-1379): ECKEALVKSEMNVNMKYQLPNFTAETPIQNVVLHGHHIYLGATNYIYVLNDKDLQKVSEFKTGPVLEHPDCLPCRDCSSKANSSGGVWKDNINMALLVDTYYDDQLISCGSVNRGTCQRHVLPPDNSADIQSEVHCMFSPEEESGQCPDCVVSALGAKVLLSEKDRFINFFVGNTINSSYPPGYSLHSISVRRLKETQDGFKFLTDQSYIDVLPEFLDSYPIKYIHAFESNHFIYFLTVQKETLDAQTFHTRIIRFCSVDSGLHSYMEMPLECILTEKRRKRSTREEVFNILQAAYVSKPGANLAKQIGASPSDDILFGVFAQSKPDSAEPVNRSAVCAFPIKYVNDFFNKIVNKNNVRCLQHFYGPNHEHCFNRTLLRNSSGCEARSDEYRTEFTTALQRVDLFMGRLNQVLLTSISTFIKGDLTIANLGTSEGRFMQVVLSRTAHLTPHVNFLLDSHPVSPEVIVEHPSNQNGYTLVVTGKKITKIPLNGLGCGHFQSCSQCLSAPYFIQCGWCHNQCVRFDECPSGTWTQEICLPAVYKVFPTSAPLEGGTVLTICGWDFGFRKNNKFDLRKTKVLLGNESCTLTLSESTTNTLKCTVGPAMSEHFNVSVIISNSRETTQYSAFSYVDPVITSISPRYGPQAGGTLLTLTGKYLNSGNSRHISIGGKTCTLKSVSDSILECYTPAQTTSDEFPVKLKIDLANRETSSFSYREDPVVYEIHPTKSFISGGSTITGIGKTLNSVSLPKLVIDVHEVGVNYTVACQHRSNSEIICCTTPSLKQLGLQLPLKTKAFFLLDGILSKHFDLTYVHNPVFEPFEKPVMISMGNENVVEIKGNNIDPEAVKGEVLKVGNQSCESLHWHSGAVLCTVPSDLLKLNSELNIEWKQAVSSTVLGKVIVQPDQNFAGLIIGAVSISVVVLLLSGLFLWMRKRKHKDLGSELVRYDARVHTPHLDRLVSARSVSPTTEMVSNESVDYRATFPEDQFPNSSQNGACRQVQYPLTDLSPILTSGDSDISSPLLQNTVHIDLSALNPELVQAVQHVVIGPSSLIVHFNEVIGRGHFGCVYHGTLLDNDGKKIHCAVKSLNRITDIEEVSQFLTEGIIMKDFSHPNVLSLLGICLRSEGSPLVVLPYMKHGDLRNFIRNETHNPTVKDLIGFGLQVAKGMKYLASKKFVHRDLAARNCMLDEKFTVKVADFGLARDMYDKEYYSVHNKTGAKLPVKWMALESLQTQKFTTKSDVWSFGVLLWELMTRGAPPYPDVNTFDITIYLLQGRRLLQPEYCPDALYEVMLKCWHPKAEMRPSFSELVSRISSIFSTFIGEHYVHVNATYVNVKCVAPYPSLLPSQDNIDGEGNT
The experiment in a line: FACS, serial dilutions of Alexa647-labelled antibody on MS1 cells. As for the experimental part: (§2) To measure antibody binding affinities against cell surface receptor, antibodies were labeled with the Alexa647 antibody labeling kit and purified per manufacturer's instruction (Invitrogen). A549 (human), 4MBr5 (monkey), MDCK (canine), and MS1 (murine) cells were resuspended in pre-chilled FACS buffer, incubated on ice for 1 hr and distributed to 96-well plates at 10⁵ cell/well. Serial dilutions of labeled antibodies were added to each well and incubated on ice for 4 hrs to allow antibody binding to reach equilibrium. Mean fluorescence intensity was analyzed using a FACS reader (ACCURI™-C6; BD Biosciences), and apparent binding affinities were determined using […] PRISM® software.

Assay [8] deals with T7, dog MET on MDCK cells (dog, UniProt Q75ZY9 25-1382).
T7 construct: whole, on cells; also called Canine (MDCK)
T7 sequence (Q75ZY9 25-1382): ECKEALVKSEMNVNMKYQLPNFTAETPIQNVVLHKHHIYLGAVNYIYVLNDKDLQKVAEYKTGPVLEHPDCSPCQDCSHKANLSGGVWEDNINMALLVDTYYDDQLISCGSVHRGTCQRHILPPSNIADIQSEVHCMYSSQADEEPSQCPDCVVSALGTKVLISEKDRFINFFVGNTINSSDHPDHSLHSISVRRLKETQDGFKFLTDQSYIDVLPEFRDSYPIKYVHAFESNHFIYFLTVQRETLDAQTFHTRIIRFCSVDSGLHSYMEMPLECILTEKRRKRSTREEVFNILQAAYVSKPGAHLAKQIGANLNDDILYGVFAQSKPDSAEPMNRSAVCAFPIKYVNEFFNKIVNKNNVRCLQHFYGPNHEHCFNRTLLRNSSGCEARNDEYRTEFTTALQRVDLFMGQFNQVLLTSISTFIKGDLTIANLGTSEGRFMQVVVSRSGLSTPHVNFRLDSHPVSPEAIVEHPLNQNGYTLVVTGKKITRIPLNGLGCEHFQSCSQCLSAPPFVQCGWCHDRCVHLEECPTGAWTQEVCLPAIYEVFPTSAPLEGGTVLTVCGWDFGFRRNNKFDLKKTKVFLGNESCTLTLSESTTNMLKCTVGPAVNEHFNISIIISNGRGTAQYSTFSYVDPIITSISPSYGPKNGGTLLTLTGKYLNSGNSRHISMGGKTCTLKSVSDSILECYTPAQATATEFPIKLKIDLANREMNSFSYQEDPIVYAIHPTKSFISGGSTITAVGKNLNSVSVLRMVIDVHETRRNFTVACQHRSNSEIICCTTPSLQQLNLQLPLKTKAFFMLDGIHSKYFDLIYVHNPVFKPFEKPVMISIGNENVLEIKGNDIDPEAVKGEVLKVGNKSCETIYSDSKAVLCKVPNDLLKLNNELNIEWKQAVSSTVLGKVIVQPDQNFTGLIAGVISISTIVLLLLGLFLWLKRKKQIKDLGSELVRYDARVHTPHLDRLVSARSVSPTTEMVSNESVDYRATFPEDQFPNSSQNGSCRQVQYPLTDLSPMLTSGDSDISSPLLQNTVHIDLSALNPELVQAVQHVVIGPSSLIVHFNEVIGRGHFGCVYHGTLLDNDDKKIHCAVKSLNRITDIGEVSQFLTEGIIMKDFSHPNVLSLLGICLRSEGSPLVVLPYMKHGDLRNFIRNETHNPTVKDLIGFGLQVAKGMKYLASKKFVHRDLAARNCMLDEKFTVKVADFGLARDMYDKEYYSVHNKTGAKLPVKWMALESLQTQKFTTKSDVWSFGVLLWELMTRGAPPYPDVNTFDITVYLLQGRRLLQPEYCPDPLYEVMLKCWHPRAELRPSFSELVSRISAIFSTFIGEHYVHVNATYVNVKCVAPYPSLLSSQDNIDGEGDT
The experiment in a line: FACS, serial dilutions of Alexa647-labelled antibody on MDCK cells. As to the method: as §2

Chain of human MET, cell-surface expressed (P08581 25-1390): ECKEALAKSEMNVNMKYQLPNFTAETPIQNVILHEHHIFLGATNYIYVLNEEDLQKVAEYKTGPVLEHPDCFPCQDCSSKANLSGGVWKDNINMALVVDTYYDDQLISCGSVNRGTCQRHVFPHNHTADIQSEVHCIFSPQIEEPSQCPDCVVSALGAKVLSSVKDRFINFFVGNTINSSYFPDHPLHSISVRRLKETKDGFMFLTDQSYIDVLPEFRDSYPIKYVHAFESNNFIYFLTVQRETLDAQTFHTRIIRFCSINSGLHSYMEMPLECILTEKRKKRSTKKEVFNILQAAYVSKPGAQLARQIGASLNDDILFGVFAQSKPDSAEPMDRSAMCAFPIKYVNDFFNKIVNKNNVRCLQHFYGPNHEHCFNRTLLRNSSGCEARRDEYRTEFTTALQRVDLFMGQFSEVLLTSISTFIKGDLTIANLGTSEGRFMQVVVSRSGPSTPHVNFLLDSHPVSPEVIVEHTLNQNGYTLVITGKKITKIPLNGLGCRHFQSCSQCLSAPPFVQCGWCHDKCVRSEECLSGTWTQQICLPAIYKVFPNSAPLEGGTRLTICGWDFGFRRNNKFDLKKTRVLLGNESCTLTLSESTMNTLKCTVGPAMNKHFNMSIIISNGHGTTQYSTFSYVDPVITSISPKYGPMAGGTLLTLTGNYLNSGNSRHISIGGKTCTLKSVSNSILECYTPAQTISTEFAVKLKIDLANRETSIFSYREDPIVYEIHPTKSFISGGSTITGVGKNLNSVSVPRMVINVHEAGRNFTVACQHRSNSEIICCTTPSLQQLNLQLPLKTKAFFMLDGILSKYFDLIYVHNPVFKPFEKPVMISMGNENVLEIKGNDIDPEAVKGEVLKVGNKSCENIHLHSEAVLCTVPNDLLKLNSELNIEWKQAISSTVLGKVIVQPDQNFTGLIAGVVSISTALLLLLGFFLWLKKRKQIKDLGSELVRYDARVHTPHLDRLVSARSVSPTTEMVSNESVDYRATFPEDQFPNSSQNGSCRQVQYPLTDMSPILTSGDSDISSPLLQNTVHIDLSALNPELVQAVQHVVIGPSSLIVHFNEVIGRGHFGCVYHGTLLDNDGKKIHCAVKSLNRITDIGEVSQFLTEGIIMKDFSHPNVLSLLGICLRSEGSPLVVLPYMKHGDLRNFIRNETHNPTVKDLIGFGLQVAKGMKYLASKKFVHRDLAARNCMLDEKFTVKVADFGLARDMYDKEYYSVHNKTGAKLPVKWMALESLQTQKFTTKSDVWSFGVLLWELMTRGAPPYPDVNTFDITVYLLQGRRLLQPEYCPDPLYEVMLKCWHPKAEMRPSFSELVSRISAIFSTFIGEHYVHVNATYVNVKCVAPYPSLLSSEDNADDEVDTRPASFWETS

B1: Ab238C (antibody, human IgG1, V domains shown)
VH: QVTLKESGPGILQPSQTLSLTCTFSGFSLSTYGMGVAWIRQPSGKDLEWLANIWWDDVNYSNPSLKNRLTISKDTSNNQVFLQITNVDTAETATYYCARIGTSHIVDAWGQGASVTVSA
VL: DIRMTQSPASLSASLGETVNIECLASEDIYSDLAWYQQKPGKSPQLLIYNANTLQNGVPSVFSGSGSGTQYSLKINNLHSEDVATYFCQQYNNYPPTFGGGTKLEIKR
For B1, in assay [1], the “maximal percent induction of MET degradation in SNU-5 cells” value (from here on “maximal percent induction”) was found to be 39% and the “percent inhibition of MET phosphorylation in SNU-5 cells” value (“percent inhibition” below) came out at 19%.

B2: Ab238 (antibody, rat IgG2a, V domains shown)
VH: QVTLKESGPGILQPSQTLSLTCTFSGFSLSTYGMGVAWIRQPSGKDLEWLANIWWDDVNYSNPSLKNRLTISKDTSNNQVFLQITNVDTAETATYYCARIGTSHIVDAWGQGASVTVSA
VL: DIRMTQSPASLSASLGETVNIECLASEDIYSDLAWYQQKPGKSPQLLIYNANTLQNGVPSVFSGSGSGTQYSLKINNLHSEDVATYFCQQYNNYPPTFGGGTKLEIKR
notes: Rat IgG2a, kappa
With B2, the binding result in assay [2], in assay [3], in assay [4], in assay [5], in assay [6] and in assay [7] was “no binding” throughout. Besides, the binding result in assay [8] is on record as “no binding”.

B3: Ab238C-IgG2 (antibody, V domains shown)
VH: QVTLKESGPGILQPSQTLSLTCTFSGFSLSTYGMGVAWIRQPSGKDLEWLANIWWDDVNYSNPSLKNRLTISKDTSNNQVFLQITNVDTAETATYYCARIGTSHIVDAWGQGASVTVSA
VL: DIRMTQSPASLSASLGETVNIECLASEDIYSDLAWYQQKPGKSPQLLIYNANTLQNGVPSVFSGSGSGTQYSLKINNLHSEDVATYFCQQYNNYPPTFGGGTKLEIKR
Consider B3, for which, in assay [1], the “maximal percent induction” value came to 35% and the “percent inhibition” value is 24%.

B4: Ab235C (antibody, human IgG1, V domains shown)
VH: QVQLQQSGAELMKPGASVKISCKATGYTFSNYWIEWVKQRPGHGLEWIGEILPGSDYTKYNEKFKGKATFTADTSSNTAYMQLSSLTSEDSAVYYCARPSTIPPDCWGQGTTLTVSA
VL: QIVLTQSPAIMSTSPGEKVTMTCSASSSVNYMFWYQQKAGSSPRLLIYDTFNLASGVPVRFSGSGSGTSYSLTISRMEAEDAATYYCQQWSIYPYTFGGGTKLEIKR
In the case of B4, in assay [1], the “maximal percent induction” value is 6% and the “percent inhibition” value amounted to 10%.

B5: Ab236C (antibody, human IgG1, V domains shown)
VH: QAQLQQSGAELMKPGASVKISCKATGYIFSSYWIEWVKQRPGHGLEWIGEILPGSDFIKYSEKFKGKATFTADTSSNTAYMQLSNLTSEDSAVYYCARPSTVPPDCWGQGTTLTVSA
VL: QIVLTQSPAIMSASPGEKVTMTCSASSSVSYMFWYQQKPGSSPRLLIYDTSDLASGVPVRFSGSGSGTSYSLTISRMEAEDAATYYCQQWSNYPYTFGGGTKLEIKR
On to B5, for which, in assay [1], the “maximal percent induction” value came out at 19% and the “percent inhibition” value stood at 17%.

B6: Ab235 (antibody, mouse IgG1, V domains shown)
VH: QVQLQQSGAELMKPGASVKISCKATGYTFSNYWIEWVKQRPGHGLEWIGEILPGSDYTKYNEKFKGKATFTADTSSNTAYMQLSSLTSEDSAVYYCARPSTIPPDCWGQGTTLTVSA
VL: QIVLTQSPAIMSTSPGEKVTMTCSASSSVNYMFWYQQKAGSSPRLLIYDTFNLASGVPVRFSGSGSGTSYSLTISRMEAEDAATYYCQQWSIYPYTFGGGTKLEIKR
notes: Mouse IgG1, kappa
Regarding B6, the binding result in assay [6], in assay [7] and in assay [8] was “no binding” each time.

B7: Ab235C-IgG2 (antibody, V domains shown)
VH: QVQLQQSGAELMKPGASVKISCKATGYTFSNYWIEWVKQRPGHGLEWIGEILPGSDYTKYNEKFKGKATFTADTSSNTAYMQLSSLTSEDSAVYYCARPSTIPPDCWGQGTTLTVSA
VL: QIVLTQSPAIMSTSPGEKVTMTCSASSSVNYMFWYQQKAGSSPRLLIYDTFNLASGVPVRFSGSGSGTSYSLTISRMEAEDAATYYCQQWSIYPYTFGGGTKLEIKR
B7: in assay [1], the “maximal percent induction” value is 64% and the “percent inhibition” value was 64%.

B8: Ab236C-IgG2 (antibody, V domains shown)
VH: QAQLQQSGAELMKPGASVKISCKATGYIFSSYWIEWVKQRPGHGLEWIGEILPGSDFIKYSEKFKGKATFTADTSSNTAYMQLSNLTSEDSAVYYCARPSTVPPDCWGQGTTLTVSA
VL: QIVLTQSPAIMSASPGEKVTMTCSASSSVSYMFWYQQKPGSSPRLLIYDTSDLASGVPVRFSGSGSGTSYSLTISRMEAEDAATYYCQQWSNYPYTFGGGTKLEIKR
As for B8, in assay [1], the “maximal percent induction” value was 69% and the “percent inhibition” value was 75%.

B9: Ab236 (antibody, mouse IgG1, V domains shown)
VH: QAQLQQSGAELMKPGASVKISCKATGYIFSSYWIEWVKQRPGHGLEWIGEILPGSDFIKYSEKFKGKATFTADTSSNTAYMQLSNLTSEDSAVYYCARPSTVPPDCWGQGTTLTVSA
VL: QIVLTQSPAIMSASPGEKVTMTCSASSSVSYMFWYQQKPGSSPRLLIYDTSDLASGVPVRFSGSGSGTSYSLTISRMEAEDAATYYCQQWSNYPYTFGGGTKLEIKR
notes: Mouse IgG1, kappa
Regarding B9, the binding result in assay [6], in assay [7] and in assay [8] was “no binding” in each case.

B10: Ab239C (antibody, human IgG1, V domains shown)
VH: EVQLVESGGGLVQPGRSLKLSCAASGFSFTDCYMAWVRQAPTKGLEWVASISSDGGGTYYRDSVKGRFTISRDNARSSLYLEMDSLRSEDTATYYCTTERYYDGTYYGYWYFDFWGPGTMVTVSA
VL: GQFTLTQPKSVSGSLRSTITIPCVRSSGDIGDRYVSWYQQRLGRPPLNVIYAADQRPSEVSDRFSGSIDSSSNSASLTITDLQMDDEADYFCQSYDSNIDIVFGGGTKLEIKR
For the molecule B10, in assay [1], the “maximal percent induction” value is 36% and the “percent inhibition” value amounted to 33%.

B11: Ab239C-IgG2 (antibody, V domains shown)
VH: EVQLVESGGGLVQPGRSLKLSCAASGFSFTDCYMAWVRQAPTKGLEWVASISSDGGGTYYRDSVKGRFTISRDNARSSLYLEMDSLRSEDTATYYCTTERYYDGTYYGYWYFDFWGPGTMVTVSA
VL: GQFTLTQPKSVSGSLRSTITIPCVRSSGDIGDRYVSWYQQRLGRPPLNVIYAADQRPSEVSDRFSGSIDSSSNSASLTITDLQMDDEADYFCQSYDSNIDIVFGGGTKLEIKR
With B11, in assay [1], the “maximal percent induction” value worked out at 75% and the “percent inhibition” value came out at 75%.

B12: Ab239 (antibody, rat IgG2a, V domains shown)
VH: EVQLVESGGGLVQPGRSLKLSCAASGFSFTDCYMAWVRQAPTKGLEWVASISSDGGGTYYRDSVKGRFTISRDNARSSLYLEMDSLRSEDTATYYCTTERYYDGTYYGYWYFDFWGPGTMVTVSA
VL: GQFTLTQPKSVSGSLRSTITIPCVRSSGDIGDRYVSWYQQRLGRPPLNVIYAADQRPSEVSDRFSGSIDSSSNSASLTITDLQMDDEADYFCQSYDSNIDIVFGGGTKLEIKR
notes: Rat IgG2a, lambda
In the case of B12, the binding result in assay [6], in assay [7] and in assay [8] was “no binding” in each case.

B13: Ab237C-IgG2 (antibody, V domains shown)
VH: EVQLVESGGGLVQPGRSLKLSCAASGFTFSDSYMAWVRQAPTKGLEWVASISSDGGGTYYRDSVKGRFSISRDNAKSSLYLQMDSLRSEDTATYYCTTEGIYTTDYYPYCFNYWGHGVMVTVSA
VL: DIQMTQSPGSLSASLGETVTIECLASADIHSNLAWYQQKPGNSPQLLIYYGNNLNDGVPSRFSGSGSGTQYSLKINSLQSEDVSIYFCQQSYDSPPTFGAGTKLEIKR
On to B13, for which, in assay [1], the “maximal percent induction” value came to 81% and the “percent inhibition” value came to 72%.

B14: Ab237 (antibody, rat IgG2a, V domains shown)
VH: EVQLVESGGGLVQPGRSLKLSCAASGFTFSDSYMAWVRQAPTKGLEWVASISSDGGGTYYRDSVKGRFSISRDNAKSSLYLQMDSLRSEDTATYYCTTEGIYTTDYYPYCFNYWGHGVMVTVSA
VL: DIQMTQSPGSLSASLGETVTIECLASADIHSNLAWYQQKPGNSPQLLIYYGNNLNDGVPSRFSGSGSGTQYSLKINSLQSEDVSIYFCQQSYDSPPTFGAGTKLEIKR
notes: Rat IgG2a, kappa
As to B14, the binding result in assay [2], in assay [3], in assay [4], in assay [5], in assay [6] and in assay [7] was “no binding” each time. For the same molecule, the binding result in assay [8] is on record as “no binding”.
